Target: angiogenin H114A (hAng, RNase 5) (Homo sapiens, UniProt P03950 25-147, H138A)
Test: X-ray crystallography; sequence-independent backbone contacts except Arg24 (C38, C32); RNA does not reach active site; crystals at 277 K; Complex: 20 mM Tris pH 8.0, 120 mM NaCl, on ice 30 min, RNA:protein 1.2:1; crystallization reservoir 200 mM NaCl, 20% PEG 6000, 100 mM HEPES pH 7.0, 277 K
Details: protein: recombinant; tags: none stated (pET-26b(+)); chain copies: 2; self-duplex of 2 identical strands, blunt; designed as stem-loop but duplex in crystal

Chain of angiogenin H114A (hAng, RNase 5) (P03950 25-147 H138A): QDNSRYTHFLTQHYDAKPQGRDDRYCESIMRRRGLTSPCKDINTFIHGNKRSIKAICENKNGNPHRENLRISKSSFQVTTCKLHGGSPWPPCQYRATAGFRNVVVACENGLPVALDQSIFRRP

B1: N19-RNA duplex (dsRNA)
RNA 1: GCCCGCCUGUCACGCGGGC
RNA 2: GCCCGCCUGUCACGCGGGC
binding result: binds
